Measured values reported in article PMC7022617, “Structural and Functional Aspects of G-Quadruplex Aptamers Which Bind a Broad Range of Influenza A Viruses”.

Molecular target: hemagglutinin HA1 subunit H5 (recombinant, Abcam ab190125) (Influenza A virus A/Vietnam/1203/2004 …, UniProt Q6DQ33 17-346)
Assay: SPR; 10 mM K+
Conditions: protein: commercial

## TTGGGGTAAGAAGGGAGGGCGGGGGTT (structured_DNA) [G7-TAAGAA]
  Kd: 60 ± 10 nM

## TTGGGGTTAGGGAGGGCGGGGGTT (structured_DNA) [G7-TTA]
  Kd: 20 ± 6 nM

## TTGGGGTTATTTTGGGAGGGCGGGGGTT (structured_DNA) [RHA0385]
  Kd: 13 ± 3 nM

## TTGGGGTTATTAAGGGAGGGCGGGGGTT (structured_DNA) [G7-TTATTAA]
Parallel intramolecular G4
  Kd: 30 ± 10 nM
